These results are taken from patent US20250129146A1, “COMBINED CANCER THERAPY WITH AN EPITHELIAL CELL ADHESION MOLECULE (EPCAM) INHIBITOR AND A WNT INHIBITOR” (ACADEMIA SINICA, priority 2021, published 2025).

Test [1] has as its system colon cancer cells (SW620, HCT116). Conditions: general description of other anti-EpCAM antibodies; cited from earlier work.
For test [2], the system named is HCT116 cells. In words: Orthotopic animal model of human CRC (HCT116 cells with luciferase in cecum wall). The settings on record: orthotopic model. In kind it is in vivo, NOD/SCID mice. How it is done:
All animal experiments were approved and performed according to the regulations from the IACUC at Academia Sinica. HCT116 cells (1×10^6) were injected via tail vein for the metastatic model. Otherwise, 2×10^5 HCT116 cells with luciferase were surgically transplanted into the cecum wall for the orthotopic model. Male NOD/SCID mice, approximately 6 to 8 weeks old, were used for animal experiments (n=5 and n=6 for each treatment group in metastatic and orthotopic models respectively). At 72-h post-injection/transplantation, mice were randomly distributed into four different treatment groups. For the treatments, animals were injected with 20 mg/kg IgG or EpAb2-6 via tail vein twice a week for four weeks, or fed by oral gavage with either vehicle [0.5% methylcellulose (Sigma-Aldrich) and 0.5% Tween80 (Sigma-Aldrich)] or 5 mg/kg LGK974 (MedChemExpress) formulated with the vehicle on alternating days for four weeks, or animals were treated with the combination of both inhibitor and antibody. For the metastatic model, survival was the main endpoint. For the orthotopic model, tumor progression was monitor using bioluminescence imaging. To image the tumors, intraperitoneal injection of D-Luciferin (GOLD BIO) was performed, and images were taken 10 min post-injection.

The target in test [3] is T1, EpCAM (Homo sapiens, UniProt P16422).
T1 construct: HEK293T cells were transfected with full length or EGF like-domain deletion mutant EpCAM-V5; V5; expressed in transfected cells; host or cells: HEK293T
T1 sequence (P16422 24-314): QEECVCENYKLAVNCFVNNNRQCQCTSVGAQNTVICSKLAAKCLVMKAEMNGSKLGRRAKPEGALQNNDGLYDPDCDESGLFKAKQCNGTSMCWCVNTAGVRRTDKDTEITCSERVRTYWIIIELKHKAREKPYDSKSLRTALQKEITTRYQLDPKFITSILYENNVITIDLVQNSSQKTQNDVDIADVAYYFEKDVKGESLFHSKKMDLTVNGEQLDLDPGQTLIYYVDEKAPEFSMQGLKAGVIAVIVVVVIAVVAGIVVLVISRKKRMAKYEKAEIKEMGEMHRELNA
The test can be described thus: Antibody binding to EpCAM wild-type, deletion and point mutants in HEK293T cells (immunofluorescence, flow cytometry, cellular ELISA). The settings on record: EGF-like domain deletion and point mutants. How it is done: FIGS. 18A to 18G. […] HEK293T cells were transfected with full length or EGF like-domain deletion mutant EpCAM-V5. Antibody binding was assessed by (FIG. 8A) Western blotting, (FIG. 8B) flow cytometry, and (FIG. 8C) immunofluorescence. (FIG. 8D) EpCAM mutants were constructed with amino acid substitutions in the EGF-I (Y32A) and EGF-II (L94A, Y95A, or D96A) domains. EpCAM wild-type and mutant proteins were expressed in HEK293T cells. Binding of MT201, EpAb2-6 and EpAb23-1 to EpCAM wild-type and mutants were evaluated by (FIG. 8E) immunofluorescence, (FIG. 8F) flow cytometry, and (FIG. 8G) cellular ELISA. All data are presented as mean±SEM. *, p<0.05; **, p<0.01.
Here, we wanted to determine whether the antibody binds to EpCAM at both EGF-like domains of EpEX (FIG. 18A, FIG. 18B, FIG. 18C). To confirm that EpAb2-6 recognizes the LYD motif in EpCAM, we constructed cDNA sequences encoding the first (aa 27-59; EGF-I domain) and second (aa 66-135; EGF-II/TY domain) EGF-like repeats of EpCAM. PCR-based site-directed mutagenesis was then used to introduce mutations into each domain (FIG. 18D). The reactivity of EpAb2-6 antibody toward these EpCAM mutants was evaluated by immunofluorescence (FIG. 18E), flow cytometry (FIG. 18F), and cellular ELISA (FIG. 18G).
Background: A flow cytometer gives signals particle by particle.

Entries after “also recorded” stand apart in the source; their conditions may differ.

On to “MT201: adecatumumab, a human anti-EpCAM antibody that was subjected to clinical trials [reference compound]”, for which, in test [1], the “inducing apoptosis of cancer cells” value is on record as “failing”.

B1: EpAb2-6: anti-EpCAM (EpEX) neutralizing monoclonal antibody produced in mice by hybridoma; VH SEQ ID NO: 15, VL SEQ ID NO: 16 (antibody, V domains shown)
VH: VKLQESGPELKKPGETVKISCKASGYTFTDYSMHWVKQAPGKGLKWMGWINTETGEPTYADDFKGRFAFSLETSASTAYLQINNLKNEDTATYFCARTAVYWGQGTTVTVSS
VL: DIQMTQSPSSLSASLGERVSLTCRASQEISVSLSWLQQEPDGTIKRLIYATSTLDSGVPKRFSGSRSGSDYSLTISSLESEDFVDYYCLQYASYPWTFGGGTKLEIK
In the case of B1, the “median / overall survival” value in test [2] was “relatively higher median survival”. Moreover, in test [2] (20 mg/kg EpAb2-6 via tail vein twice a week, 5 mg/kg LGK974 oral gavage on alternating days, four weeks), the “tumor progression (bioluminescence)” value is “much slower tumor progression”. Further, the EpCAM domains bound entry in test [3] was “binds to the EGF-I and EGF-II domains of EpEX; also recorded: binds to both EGF-like domain I and II of EpCAM”.
